# Experiment: yeast display, Sf9 membrane polyspecificity reagent, FACS + sequencing; frameworks hold sequencing errors
# Outline: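 Using colony PCR, genes from sorted yeast display clones were amplified, then sequenced on MiSeq at 2 × 250 and filtered by CDR length. The clones had been stained with 10% biotinylated, detergent-solubilized Sf9 membrane reagent for 1 hour at 4 °C and sorted by FACS into low and high (top ~1%) gates on anti-HA and streptavidin fluorescence. Polyreactivity labels come from the gate of origin.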
row,Sequence,polyreactivity (PSR sort gate)
1,QVQLVESGGGLVQAGGSLRLSCAASGSTFGRYAMGWYRQAPGKERELVAAINFNGGRTYYADSVKGRFTISRDNAKNTVYLQMNSLKPEDTAVYYCNALQQYALSRYYWGQGTQVTVSS,high polyreactivity
2,QVQLVESGGGLVQAGGSLRLSCHASGFIFGYKAMGWYRQAPGKERELVAAISSGGSTYYADSVKGRFTISRDNAKYTVYLQMKSLKPEDTAVFYCATVFVVLPPTRFDSWGQGTQVTVSS,low polyreactivity
3,QVQLVESGGGLVQAGGSLRLSCAASGSIVSYYAMGWYRKAPGKERELVAAISKSGGRTYYADSVKGRFTISRDNAKNTVYLQMNSLKPEDTAVYYCAAPATYKYEYWGQGTQVTVSS,high polyreactivity
4,QVQLVESGGGLVQAGGSRRLSCAASGRIFTTYAMGWYRQAPGKERELVAAITRNGGRTYYADSVKGRFTLSRDNAKNTVYVPMHSLKPEDTAVYYCAAVYRSFGKVYGMDYWGQGTQVTVSS,high polyreactivity
5,QVQLVESGGGLVQAGGSLRLSCAASGRIFYTNGMGWYRQAPGKERELVAAITYSGGNTFYADSVKGRFTISRDNSKNTVYLQMNSLKPEDTAVYYCAATFTYLGYWYDYRGQGTQVTVSS,low polyreactivity
6,QVQLVESVGGLVQAGGSLRLSCAASGITFPYYAMGWYRQAPGKERELVAAISRGDSTYYADSVKGRFTISRDNAKNTVYLQMNSLKPEDTAVYYCAARYGRYWSSCGSWTPYGYWGQGTQVTVSS,high polyreactivity
7,QVQLVESGGCLVQAGGSLRLSCAASGFIFPPNAMGWYRQAPGKERELVASISSSGGSTYYADSVKGRFTISRDNAKNTVYLQMNSLKPEDTAVYYCAADWFYGWGKYDYWGQGTQVTVSS,low polyreactivity
8,QVQLVESGGGLVQAGGSLRLRCAASGRIFRKYAMGWYRQAPGKERELVAAITSGGSTYYADSVKGRFTISRDNAKNTVYLQMNSLKPEDTAVYYCAAFYRGGDYWGQGTQVTVSS,high polyreactivity
9,QVQLVESGGGLVQAGGSLRLSCAASGFTFVHYAMGWYRQAPGKETELVAAISSGGSTYYADSVKGRFTISRDNAKNTVYLQLNSLKAEDTAVYYCAALKYSRGVRYGYWGQVTQVTVSS,high polyreactivity
10,QVQLVESGGGLVQAGGSLRLSCAASGSIFGFYMGWYRQAPGKERELVAAISGSGGNTYYADSVKGRFTISRDNAKNTVYLQMNSLKPEDTAVYYCAAVSRHRGWDRYYWGQGTQVTVSS,high polyreactivity
11,QVQLEESGGGLVQAGGSLRLSCAASGSMFTRYAKGWYRQAPWKERELVAAISTSGGSTYYADSVKGRFTISRDNAKNTVYLQMTSLKPEDTAVYYCAADDQRRSGYYSWGQGTQVTVSS,high polyreactivity
12,QVQLVESGGGLVQAGGSLRLSCAASGGIFPQYSMGWYTQAPGKERELVSAISRRGGRTYYADSVKGRFTISRDTAKNTVYLQMNSLKPEDTAVYYCAKRALTYTRYRVIYDYWGQGTQVTVSS,high polyreactivity
13,QGQLVESGGGLVQAGGSLRLSCAASGRTFYVNAMGWYRQAPGKERELVAGISFSDGSTYYADSVKGRFTISRDNAKNSVYLQMNSLKPEDTAVYYCATVGAFDIYYGYGYWVQGTQVTVSS,low polyreactivity
14,QVQLVESGGGLVQAGGSLRLSCAASGSIFSSYVMVWYRQAPGKERELVAAISSSGGSTYYADSVKGRFTISRDNAKNTVYLQMNSLKPEDTAVYYCAARSYYSYYLMYYWGQGTQVTVSS,high polyreactivity
15,QVQLVESGGGLVQAGGSLRLSCAASGRIFEDYMVWYRHAPGKDRELVAAIRWSGGGTYYADSVKGRFTISRDNAKNTVYLQMTSLKPEDTAVYYCATPGTGSVEVYGYWGQGTQVTVSS,low polyreactivity
16,QVQLVESGGGLVQAGGSLRLSCAASGRTIAPYAMGSYRQAPGKERELVAAITYSGGSTYYADSVKGRFTISRDNAKNTVYLQMNSLKPEDTAVYYCAVDTTTSYTVEYDYWGQGTQVTVSS,low polyreactivity
17,QVQLVESGGGLVQAGGSLRLSCAASGSTFDVYAKGWYRQAPGKEWELVAAISRSGGSTYYADSVKGRFTISRDNAKNTVYLQMNSLKPEDTAVYYCNPRLARWGSDEYNYWGQGTQETVSS,low polyreactivity
18,QDQLVESGGGLVQEGGSLRLSCAASGRIFVGYAMGWSRQAPGKERELVAAISSSGGRTYYADSVKGRFTISRDNAKNTVYFQMNSLQPEDTAVYYCAAGRFIWGTWALDYWGQGTQVTVSS,high polyreactivity
19,QVQLVESGGGLVQAGGSLRLSCAAYGSTFVWNTMGWYLQAPGKERELVAAINWSGTRTYYADSVKGRFTISRDNAKNTVYLQMNSLKPEDTAVYYCAAESYYPAGIRGYWGQGTQVTVSS,high polyreactivity
20,QVQLVESGGGLVQAGGSLRLSCAASGSIFPPNAMGWYRQAPGKERELVAGISQSGGSTYYADSVKGRFTISRDNAKNTVYLQMNSLKPEDTAVYYCARRSRVGYPLDSWGQGTQVTVSS,high polyreactivity
21,QVQLVESGGGLVQAGGSLRLSCAASGRIFYWYTMGWYRQAPGKERELVASISGSGGSTYYADSVKGRFTISRDNAKNTVYLQMNSLKPEDTAVYYCNKGSRWLRGLDYWGQGTQVTVSS,high polyreactivity
22,QVQLVESGGGLVQAGGSLRLSCAASGIIFVRNVMGWYRQAPGKERELVAAITNGGSTYYADSVKGRFTISRDNAKNTVYLQMNSLQPEDTAVYYCAALTGVRRRYYYWGQGTQVTVSS,high polyreactivity

row,Sequence,polyreactivity (PSR sort gate)
1,QVQLVESGGCLVQAGGSLRLSCAASGRIFLRYAMGWYRQAPGKEREFVADITYSGGSTYYADSVKGRFTISRDNAKNTVYLQMNSLKPEDTAVYYCAAGWVRPWATYKLDYWGQGTQVTVTS,high polyreactivity
2,QVQLVESGVGLVQAGGSLRLSCAASGSIFDANTMGWYRQAPGKERELVAAITGSGASTYYADSVKGRFTISRDNAKNTVYLQMNSLKPEDSAVYYCAARRYTSYYKDGWYAYYYWGQGTQVTVSS,high polyreactivity
3,QVQLVESGGGLVQAGGSLRLSCAASGRTFDRYAMGWYRQAPGKEREFVAVISSSGVRTNYADSVKGRFTISRDNAKNTVYFQMNSLKPEDTAVYYCAAVFWFRSLSGYIYDYWGQGTQVTVST,low polyreactivity
4,QVQLVETGGGLVQAGGSLRLSCDASGRTFRIYGMGWYRQAPGKERELVAAISYSTGGTYYADSVKGRFTISRDNAKNTVYLQMTSLKPEDTAVYYCAAVVYAYLYADYDYWGQGTQVTVSS,low polyreactivity
5,PVQLVESGGGLVQAGGSLRLSCAASGRIFPSYAMGWYRQAPGKERELVATINGDGGSTYYADSVKGRFTISRDNAKNTVYLQMNSLKPEDTAVYYCAKRYPFAAEYDYWGQGTQVTVSS,low polyreactivity
6,QVQLVESGGGLVQAGGSLRLICAASGLTFFLYPMGWYRPAPGKERELVAAISSRGGSTYYADSVKGRFTISRDKAKNTVYLQMYSLKPEDTAVYYCADATKGDEDYWGQGTQVTVSS,high polyreactivity
7,KVQLVESGGGLVQAGGSLRLSCAASGTSSRYVMGLYRQSTGKERELVAAISWSGDSTYYADSVKGRFTISRDNAKNTVNLQMNSLKPEDTAVYYRAKDADFGLGATSYLEYDYWGQGTQVTVSS,low polyreactivity
8,QVQLVESGGGLVQAGGSLRLSCAASGIIYKSYAMGWYRQAPGKERELVAVIRWSGGSTYYSDSVKGRFTISRDNAKNTVYLQMNSLKPEDTAVYYCAATPRKSYSIRRYDYWGQGTQVTVSS,high polyreactivity
9,QVQLVESGGGLVQAGGSLRLSCAASGSTFDINAMGWYRQAPGKERELVASITFCGGSTYYADSVKGRFTISRDNAKNTVYLEMNSLKPEDTAVYYCAADSSGEYPGGYWGQGTQVTVSS,low polyreactivity
10,QVQLVESGGGLVQAGGSLRLSCAASGFTFHTYAMGWYRQAPGKERELVAAIDSSGGITYYADSVKGRFTISRDHAKNTVYLQMNSLKPEDTAVYYCAAVFLLFGFEWSYDYWGQGTQVTVSS,low polyreactivity
11,QVQLVESLGGLVQAGGSLRLSFAASGFIFAKYAIGWYRKAAGKERELVAAITSGGSTNYADSVKGRFTISRDNAKNTVFLQMNSLKPEDTAVYYCNRGFDWCYRYRHYDYCGQGTQVTVSS,low polyreactivity
12,QVQLVESGGGLVQAGGSLSLSCAASGSISYRYAMGWYRQAPGKERELVAAITSGGRTYYADSVKGRFTISRDNAKYTVYLQMNSLKPEDTAVYYCAKSKPVGPYYYWGQGTQVTVSS,high polyreactivity
13,QVQLVESGGGLVQAGGSLRLSCAASGSTIVVYAMGWYRQAPGKARELVAAITTSDDSTYYADSVKGRFTISRDNAKNTVYLQMNSLKPEDTAVYYCAATLRWQDGYSGQGTQVTVSS,low polyreactivity
14,QVQLVESGGGLVQAGGSLRLSCAASGYTFHHNTMGWYRQAPGKERELVATISDGGSTNYADSVKGRFTISRDNAKNTVYLQMNSLKPEDTAVYYCAALYQQFQSALVPYFDVIEEDYWGQGTQVTVSS,low polyreactivity
15,QDQLVESGGGLVQAGGSLRLSCAASGRIIRQYAMGWYRQAPGKERELVAVISAGGARTYYADSVKGRFTISRDNAKNTVYLQMNSLKPEDTAVYYCAVSYPPGAYRRHFRYGYWGQGTQVTVSS,high polyreactivity
16,QVQLVESGGRLVQAGGSLRLSCAASGSTIPYYTMGWYRQAPGKERELVAAIRYSGSSTYYADSVKGRFTISRDNAKNTVYLQMNSLKPEDTAVYYCAKTLWRRRGDRRYRVIEMDHWGQGTQVTVSS,low polyreactivity
17,QVQLVESGGGLVQAGGSLRLSCAASGSIYINARGWYRQAPGKERELVAAISSGGSTNYADSVKGRFTISRDNAKNTVYLQMNSLKPEDTAVFYCATRRYRGPWYRNAYDYWGQGTQVTVSS,low polyreactivity
18,QVQLVESGGGLVQAAGSLRLSCAASGNTFRWYVMGWYRQAPGKERELVAAITSSGSNTYYADSVKGRFTISRDNAKNTVYLQMNSLKPEDTAVYYCAARNYGPYDYWGQGTQVTVSS,low polyreactivity
19,QVQLVETGGGLVHAGGSLRLSCAASGFIFTEYAMGWYRQAPGKEMELVAAISRSDDATHYADSVKGRFTISRDNAKNTVSLQMNSLKTEDTAVYNCTVAPEGYSLVDTSPYYYWGQGTQVTVSS,low polyreactivity
20,QVQLVETGGGLVQAGGSLRLSCAASGYTFASNDMVWYRQAPGKERELVAAITKGGGRTYYADSVKGRFTISRDNAKNTVYLQMNRLKPEDTAVYFCAARQLIKYDYCGQGTQVTVSS,low polyreactivity
21,QVQLVESGGGLVQAGGSLRLSCAASVFTFISYAMGRYRQAPGKEREFVAAITRGGGSTYYADSVKGRFTISRDNAKNTVYLQMNSLKPEDTAVYYCAADPQSTIRDYWGQGTQVTVSS,high polyreactivity

# From the nanobody polyreactivity screen of Harvey et al. (2022)
